# In patent US12269859B2, “Synthetic immune receptors and methods of use thereof” (Angeles Therapeutics, Inc., priority 2016, dated 2025):
# Test system: target antigen-expressing cell line
# Assay: Jurkat NFAT-GFP assay, coculture with target cell lines expressing the respective target antigen (summary Table 10A)
# Format: cell-based, human
# Design: key: The signs +/−, +, 2+ etc. after the name of the cell lines indicate the relative degree of positivity on the Jurkat-NFAT-GFP assay as measured by the % GFP positive cells; +: relative degree of positivity on the Jurkat-NFAT-GFP assay as measured by the % GFP positive cells; 2+: relative degree of positivity on the Jurkat-NFAT-GFP assay as measured by the % GFP positive cells
# Method in brief: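 Jurkat cells carrying an NFAT-site IL-2 promoter driving GFP were lentivirally transduced with SIRs, puromycin-selected, then cocultured with antigen-expressing target cells at E:T about 1:2 for about 4–18 hours. GFP induction was read by flow cytometry as % GFP-positive cells versus parental Jurkat-NFAT-GFP.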
Molecule,NFAT-GFP ASSAY Positive Cell lines (coculture with L363 cells),NFAT-GFP ASSAY Positive Cell lines (coculture with U266 cells)
"110116-L01 (protein, Synthetic Immune Receptor (SIR)) MALPVTALLLPLALLLHAARPLEQKLISEEDLGSGDRPDPAVYQLRDSKSSDKSVCLFTDFDSQTNVSQSKDSDVYITDKCVLDMRSMDFKSNSAVAWSNKSDFACANAFNNSIIPEDTFFPSPESSCDVKLVEKSFETDTNLNFQNLSVIGFRILLLKVAGFNLLMTLRLWSSSSRAKRSGSGVKQTLNFDLLKLAGDVESNPGPTSMALPVTALLLPLALLLHAARPDIVMTQSQKSMSTSVGDRVSITCKASQDVITGVAWYQQKPGQSPKLLIYSASYRYTGVPDRFTGSGSGTDFTFTISNVQAEDLAVYYCQQHYSTPLTFGAGTKLELKGGGGSGGGGSGGGGSQVQLQQPGAELVRPGASVKLSCKASGYSFTTYWMNWVKQRPGQGLEWIGMIHPSDSETRLNQKFKDKATLTVDKSSSTAYMQLSSPTSEDSAVYYCARSTMIATRAMDYWGQGTSVTVSSTRGKPIPNPLLGLDSTGSGEDLKNVFPPEVAVFEPSEAEISHTQKATLVCLATGFYPDHVELSWWVNGKEVHSGVCTDPQPLKEQPALNDSRYCLSSRLRVSATFWQNPRNHFRCQVQFYGLSENDEWTQDRAKPVTQIVSAEAWGRADCGFTSESYQQGVLSATILYEILLGKATLYAVLVSALVLMAMVKRKDSRGRAKRSGSGATNFSLLKQAGDVEENPGPSRGHMTEYKPTVRLATRDDVPRAVRTLAAAFADYPATRHTVDPDRHIERVTELQELFLTRVGLDIGKVWVADDGAAVAVWTTPESVEAGAVFAEIGPRMAELSGSRLAAQQQMEGLLAPHRPKEPAWFLATVGVSPDHQGKGLGSAVVLPGVEAAERAGVPAFLETSAPRNLPFYERLGFTVTADVEVPEGPRTWCMTRKPGA","U266 (+), L363 (+)","U266 (+), L363 (+)"
012517-B12 (protein) MALPVTALLLPLALLLHAARPLEGKPIPNPLLGLDSTGSGEDLKNVFPPEVAVFEPSKAEIAHTQKATLVCLATGFYPDHVELSWWVNGKEVHSGVCTDPQPLKEQPALNDSRYCLSSRLRVSATFWQNPRNHFRCQVQFYGLSENDEWTQDRAKPVTQIVSAEAWGRADCGITSASYHQGVLSATILYEILLGKATLYAVLVSALVLMAMVKRKDSRGRAKRSGSGATNFSLLKQAGDVEENPGPTSMALPVTALLLPLALLLHAARPDVVMTQTPLSLSVTPGQPASISCRSSQSLVHNNGNTYLHWYLQKPGQSPQLLIYKVSNRFSGVPDRFSGSGSGTDFTLKISRVEAEDVGVYFCSQSTHVPPYTFGGGTKVEIKGGGGSGGGGSGGGGSEVQLVESGGGLVQPGGSLRLSCAASGFTFSDYYMAWVRQAPGKGLEWVAEINYDGSSTYYVDSVKGRFTISRDNAKNSLYLQMNSLRAEDTAVYYCARDRGFYFDYWGQGTTVTVSSTREQKLISEEDGSGIQNPDPAVYQLRDSKSSDKSVCLFTDFDSQTNVSQSKDSDVYITDKCVLDMRSMDFKSNSAVAWSNKSDFACANAFNNSIIPEDTFFPSSDVPCDVKLVEKSFETDTNLNFQNLSVIGFRILLLKVAGFNLLMTLRLWSSRAKRSGSGVKQTLNFDLLKLAGDVESNPGPSRGHMTEYKPTVRLATRDDVPRAVRTLAAAFADYPATRHTVDPDRHIERVTELQELFLTRVGLDIGKVWVADDGAAVAVWTTPESVEAGAVFAEIGPRMAELSGSRLAAQQQMEGLLAPHRPKEPAWFLATVGVSPDHQGKGLGSAVVLPGVEAAERAGVPAFLETSAPRNLPFYERLGFTVTADVEVPEGPRTWCMTRKPGA,+,2+
012517-O12 (protein) MALPVTALLLPLALLLHAARPLEGKPIPNPLLGLDSTGSGEDLKNVFPPEVAVFEPSKAEIAHTQKATLVCLATGFYPDHVELSWWVNGKEVHSGVCTDPQPLKEQPALNDSRYCLSSRLRVSATFWQNPRNHFRCQVQFYGLSENDEWTQDRAKPVTQIVSAEAWGRADCGITSASYHQGVLSATILYEILLGKATLYAVLVSALVLMAMVKRKDSRGRAKRSGSGATNFSLLKQAGDVEENPGPTSMALPVTALLLPLALLLHAARPDIQMTQSSSYLSVSLGGRVTITCKASDHINNWLAWYQQKPGNAPRLLISGATSLETGVPSRFSGSGSGKDYTLSITSLQTEDVATYYCQQYWSTPWTFGGGTKLEIKGGGGSGGGGSGGGGSQVQLQQSGAELARPGASVKLSCKASGYTFTSYWMQWVKQRPGQGLEWIGAIYPGDGDTRYTQKFKGKATLTADKSSSTAYMQLSSLASEDSAVYYCARGKVYYGSNPFAYWGQGTLVTVSATREQKLISEEDGSGIQNPDPAVYQLRDSKSSDKSVCLFTDFDSQTNVSQSKDSDVYITDKCVLDMRSMDFKSNSAVAWSNKSDFACANAFNNSIIPEDTFFPSSDVPCDVKLVEKSFETDTNLNFQNLSVIGFRILLLKVAGFNLLMTLRLWSSRAKRSGSGVKQTLNFDLLKLAGDVESNPGPSRGHMTEYKPTVRLATRDDVPRAVRTLAAAFADYPATRHTVDPDRHIERVTELQELFLTRVGLDIGKVWVADDGAAVAVWTTPESVEAGAVFAEIGPRMAELSGSRLAAQQQMEGLLAPHRPKEPAWFLATVGVSPDHQGKGLGSAVVLPGVEAAERAGVPAFLETSAPRNLPFYERLGFTVTADVEVPEGPRTWCMTRKPGA,+/−,+
012517-A12 (protein) MALPVTALLLPLALLLHAARPLEGKPIPNPLLGLDSTGSGEDLKNVFPPEVAVFEPSKAEIAHTQKATLVCLATGFYPDHVELSWWVNGKEVHSGVCTDPQPLKEQPALNDSRYCLSSRLRVSATFWQNPRNHFRCQVQFYGLSENDEWTQDRAKPVTQIVSAEAWGRADCGITSASYHQGVLSATILYEILLGKATLYAVLVSALVLMAMVKRKDSRGRAKRSGSGATNFSLLKQAGDVEENPGPTSMALPVTALLLPLALLLHAARPDIQMTQSPSSLSASVGDRVTITCKASQDVSTAVAWYQQKPGKAPKLLIYSASYRYTGVPDRFTGSGSGTDFTLTISSLQPEDFATYYCQQHYSTPPYTFGGGTKVEIKRGGGGSGGGGSGGGGSQVQLVQSGAEVKKPGASVKVSCKASGYAFSSSWMNWVRQAPGQGLEWIGRIYPGDGDTKYNGKFKGKATLTADKSTSTAYMELSSLRSEDTAVYYCARSTMIATGAMDYWGQGTLVTVSSTREQKLISEEDGSGIQNPDPAVYQLRDSKSSDKSVCLFTDFDSQTNVSQSKDSDVYITDKCVLDMRSMDFKSNSAVAWSNKSDFACANAFNNSIIPEDTFFPSSDVPCDVKLVEKSFETDTNLNFQNLSVIGFRILLLKVAGFNLLMTLRLWSSRAKRSGSGVKQTLNFDLLKLAGDVESNPGPSRGHMTEYKPTVRLATRDDVPRAVRTLAAAFADYPATRHTVDPDRHIERVTELQELFLTRVGLDIGKVWVADDGAAVAVWTTPESVEAGAVFAEIGPRMAELSGSRLAAQQQMEGLLAPHRPKEPAWFLATVGVSPDHQGKGLGSAVVLPGVEAAERAGVPAFLETSAPRNLPFYERLGFTVTADVEVPEGPRTWCMTRKPGA,(+),"U266 (+/−), L363"
012517-P12 (protein) MALPVTALLLPLALLLHAARPLEGKPIPNPLLGLDSTGSGEDLKNVFPPEVAVFEPSKAEIAHTQKATLVCLATGFYPDHVELSWWVNGKEVHSGVCTDPQPLKEQPALNDSRYCLSSRLRVSATFWQNPRNHFRCQVQFYGLSENDEWTQDRAKPVTQIVSAEAWGRADCGITSASYHQGVLSATILYEILLGKATLYAVLVSALVLMAMVKRKDSRGRAKRSGSGATNFSLLKQAGDVEENPGPTSMALPVTALLLPLALLLHAARPDIVMTQSHKFMSTSVGDRVSITCKASQDVSTAVAWYQQKPGQSPKLLIYSASYRYTGVPDRFTGSGSGTDFTFTISSVQAEDLAVYYCQQHYSTPPYTFGGGTKLEIKGGGGSGGGGSGGGGSQVQLQQSGPELVKPGASVKISCKASGYAFSSSWMNWVKQRPGQGLEWIGRIYPGDGDTKYNGKFKGKATLTADKSSSTAYMQLSSLTSVDSAVYFCARSTMIATGAMDYWGQGTSVTVSSTREQKLISEEDGSGIQNPDPAVYQLRDSKSSDKSVCLFTDFDSQTNVSQSKDSDVYITDKCVLDMRSMDFKSNSAVAWSNKSDFACANAFNNSIIPEDTFFPSSDVPCDVKLVEKSFETDTNLNFQNLSVIGFRILLLKVAGFNLLMTLRLWSSRAKRSGSGVKQTLNFDLLKLAGDVESNPGPSRGHMTEYKPTVRLATRDDVPRAVRTLAAAFADYPATRHTVDPDRHIERVTELQELFLTRVGLDIGKVWVADDGAAVAVWTTPESVEAGAVFAEIGPRMAELSGSRLAAQQQMEGLLAPHRPKEPAWFLATVGVSPDHQGKGLGSAVVLPGVEAAERAGVPAFLETSAPRNLPFYERLGFTVTADVEVPEGPRTWCMTRKPGA,(+/−),"U266 (+/−), L363"
012517-N12 (protein) MALPVTALLLPLALLLHAARPLEGKPIPNPLLGLDSTGSGEDLKNVFPPEVAVFEPSKAEIAHTQKATLVCLATGFYPDHVELSWWVNGKEVHSGVCTDPQPLKEQPALNDSRYCLSSRLRVSATFWQNPRNHFRCQVQFYGLSENDEWTQDRAKPVTQIVSAEAWGRADCGITSASYHQGVLSATILYEILLGKATLYAVLVSALVLMAMVKRKDSRGRAKRSGSGATNFSLLKQAGDVEENPGPTSMALPVTALLLPLALLLHAARPDVVMTQSPLSLPVTPGEPASISCRSSQSLVHSNGNTYLHWYLQKPGQSPQLLIYKVSNRFSGVPDRFSGSGSGTDFTLKISRVEAEDVGVYFCSQSTHVPPFTFGGGTKVEIKGGGGSGGGGSGGGGSEVQLVESGGGLVQPGGSLRLSCAASGFTFSDYYMAWVRQAPGKGLEWVADINYDGGSTYYLDSLKSRFTISRDNAKNSLYLQMNSLRAEDTAVYYCARDRGYYFDYWGQGTLVTVSSTREQKLISEEDGSGIQNPDPAVYQLRDSKSSDKSVCLFTDFDSQTNVSQSKDSDVYITDKCVLDMRSMDFKSNSAVAWSNKSDFACANAFNNSIIPEDTFFPSSDVPCDVKLVEKSFETDTNLNFQNLSVIGFRILLLKVAGFNLLMTLRLWSSRAKRSGSGVKQTLNFDLLKLAGDVESNPGPSRGHMTEYKPTVRLATRDDVPRAVRTLAAAFADYPATRHTVDPDRHIERVTELQELFLTRVGLDIGKVWVADDGAAVAVWTTPESVEAGAVFAEIGPRMAELSGSRLAAQQQMEGLLAPHRPKEPAWFLATVGVSPDHQGKGLGSAVVLPGVEAAERAGVPAFLETSAPRNLPFYERLGFTVTADVEVPEGPRTWCMTRKPGA,+,2+
